Assay results published in patent US20200262877A1, “ION CHANNEL-BINDING PEPTIDES AND METHODS OF USE THEREOF” (priority 2017, published 2020).

Experiments:
GABA = assay: Ion channel panel (IonWorks Barracuda): GABA; type: cell-based; settings: 100% = no change, <100% = inhibition
In short: (§1)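 Peptides were tested in duplicate at final 20 μM and 200 nM, with concentration set by amino acid analysis, in HEPES-buffered saline. They were applied for at least 5 min to HEK293 or CHO cells transfected with each channel. Currents were expressed as % inhibition, 1-(Ipeptide/Icontrol)×100, or % activation, Ipeptide/Icontrol×100, against a channel-matched reference compound.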

NR2B = biological target: T1, NR2B (Homo sapiens, UniProt Q13224); assay: Ion channel panel (IonWorks Barracuda): NR2B; type: cell-based; settings: 100% = no change, <100% = inhibition
T1 construct: host or cells: HEK293 or CHO
In short: as §1

Nav1.5 = Nav1.5 (Homo sapiens, UniProt Q14524); assay: in vitro; settings: 100% = no change; for Activity of Nav1.5 with peptide, expressed as a percentage of the reference compound: peptide at 0.2 μM; for Activity of Nav1.5 with peptide (percentage of the reference compound): peptide at 20 μM
Sequence of Nav1.5 (Q14524 whole entry): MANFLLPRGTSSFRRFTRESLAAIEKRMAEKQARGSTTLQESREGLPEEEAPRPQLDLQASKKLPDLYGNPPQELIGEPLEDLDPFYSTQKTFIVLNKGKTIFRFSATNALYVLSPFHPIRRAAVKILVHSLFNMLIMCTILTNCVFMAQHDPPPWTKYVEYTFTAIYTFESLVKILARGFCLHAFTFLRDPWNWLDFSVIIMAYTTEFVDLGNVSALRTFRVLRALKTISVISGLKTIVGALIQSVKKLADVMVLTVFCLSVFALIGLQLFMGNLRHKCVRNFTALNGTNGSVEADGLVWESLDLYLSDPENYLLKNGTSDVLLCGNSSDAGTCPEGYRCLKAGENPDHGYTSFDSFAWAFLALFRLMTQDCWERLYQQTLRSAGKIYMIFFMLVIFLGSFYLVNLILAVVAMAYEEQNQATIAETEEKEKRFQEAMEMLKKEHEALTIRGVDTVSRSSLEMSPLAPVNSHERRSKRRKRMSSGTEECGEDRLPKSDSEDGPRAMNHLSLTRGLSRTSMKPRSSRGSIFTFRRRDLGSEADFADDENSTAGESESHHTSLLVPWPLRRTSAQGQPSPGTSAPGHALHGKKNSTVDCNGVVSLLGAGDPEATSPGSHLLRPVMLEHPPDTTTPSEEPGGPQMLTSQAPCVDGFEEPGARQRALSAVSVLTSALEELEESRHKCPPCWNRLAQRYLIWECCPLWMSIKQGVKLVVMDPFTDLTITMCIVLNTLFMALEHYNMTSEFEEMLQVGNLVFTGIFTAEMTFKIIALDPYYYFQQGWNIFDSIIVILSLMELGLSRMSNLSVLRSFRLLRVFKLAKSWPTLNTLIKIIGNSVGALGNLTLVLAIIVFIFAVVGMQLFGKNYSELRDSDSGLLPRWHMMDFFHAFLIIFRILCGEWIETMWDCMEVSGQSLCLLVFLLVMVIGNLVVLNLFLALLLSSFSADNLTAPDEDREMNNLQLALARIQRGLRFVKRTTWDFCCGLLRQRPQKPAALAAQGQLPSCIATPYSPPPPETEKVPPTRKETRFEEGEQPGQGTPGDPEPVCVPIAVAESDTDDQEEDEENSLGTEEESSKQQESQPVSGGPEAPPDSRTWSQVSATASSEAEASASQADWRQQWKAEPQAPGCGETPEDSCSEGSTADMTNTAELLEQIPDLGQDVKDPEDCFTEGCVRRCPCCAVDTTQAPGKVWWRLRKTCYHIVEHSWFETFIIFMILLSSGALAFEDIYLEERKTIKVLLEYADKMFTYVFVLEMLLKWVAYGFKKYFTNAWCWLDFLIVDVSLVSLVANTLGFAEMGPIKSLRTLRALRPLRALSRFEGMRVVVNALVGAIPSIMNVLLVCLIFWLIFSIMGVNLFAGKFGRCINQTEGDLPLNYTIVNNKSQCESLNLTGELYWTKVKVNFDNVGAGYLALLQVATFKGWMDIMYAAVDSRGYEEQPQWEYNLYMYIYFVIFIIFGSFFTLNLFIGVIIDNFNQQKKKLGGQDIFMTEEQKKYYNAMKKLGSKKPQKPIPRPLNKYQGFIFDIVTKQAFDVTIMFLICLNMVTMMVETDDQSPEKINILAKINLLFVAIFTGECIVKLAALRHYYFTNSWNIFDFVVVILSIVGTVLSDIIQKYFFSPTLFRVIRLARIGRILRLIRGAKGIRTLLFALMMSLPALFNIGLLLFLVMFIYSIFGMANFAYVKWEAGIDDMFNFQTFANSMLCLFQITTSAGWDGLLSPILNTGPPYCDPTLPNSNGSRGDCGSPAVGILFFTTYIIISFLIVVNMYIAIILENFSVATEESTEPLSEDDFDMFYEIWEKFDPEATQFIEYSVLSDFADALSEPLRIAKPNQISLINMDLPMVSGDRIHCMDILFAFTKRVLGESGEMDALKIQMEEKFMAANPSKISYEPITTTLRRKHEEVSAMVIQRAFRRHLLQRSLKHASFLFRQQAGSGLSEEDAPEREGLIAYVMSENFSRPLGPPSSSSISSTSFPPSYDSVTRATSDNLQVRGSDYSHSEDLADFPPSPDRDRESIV
In short: as §1

hERG = hERG (Homo sapiens, UniProt Q12809); assay: in vitro; settings: 100% = no change, <100% = inhibition
Sequence of hERG (Q12809 whole entry): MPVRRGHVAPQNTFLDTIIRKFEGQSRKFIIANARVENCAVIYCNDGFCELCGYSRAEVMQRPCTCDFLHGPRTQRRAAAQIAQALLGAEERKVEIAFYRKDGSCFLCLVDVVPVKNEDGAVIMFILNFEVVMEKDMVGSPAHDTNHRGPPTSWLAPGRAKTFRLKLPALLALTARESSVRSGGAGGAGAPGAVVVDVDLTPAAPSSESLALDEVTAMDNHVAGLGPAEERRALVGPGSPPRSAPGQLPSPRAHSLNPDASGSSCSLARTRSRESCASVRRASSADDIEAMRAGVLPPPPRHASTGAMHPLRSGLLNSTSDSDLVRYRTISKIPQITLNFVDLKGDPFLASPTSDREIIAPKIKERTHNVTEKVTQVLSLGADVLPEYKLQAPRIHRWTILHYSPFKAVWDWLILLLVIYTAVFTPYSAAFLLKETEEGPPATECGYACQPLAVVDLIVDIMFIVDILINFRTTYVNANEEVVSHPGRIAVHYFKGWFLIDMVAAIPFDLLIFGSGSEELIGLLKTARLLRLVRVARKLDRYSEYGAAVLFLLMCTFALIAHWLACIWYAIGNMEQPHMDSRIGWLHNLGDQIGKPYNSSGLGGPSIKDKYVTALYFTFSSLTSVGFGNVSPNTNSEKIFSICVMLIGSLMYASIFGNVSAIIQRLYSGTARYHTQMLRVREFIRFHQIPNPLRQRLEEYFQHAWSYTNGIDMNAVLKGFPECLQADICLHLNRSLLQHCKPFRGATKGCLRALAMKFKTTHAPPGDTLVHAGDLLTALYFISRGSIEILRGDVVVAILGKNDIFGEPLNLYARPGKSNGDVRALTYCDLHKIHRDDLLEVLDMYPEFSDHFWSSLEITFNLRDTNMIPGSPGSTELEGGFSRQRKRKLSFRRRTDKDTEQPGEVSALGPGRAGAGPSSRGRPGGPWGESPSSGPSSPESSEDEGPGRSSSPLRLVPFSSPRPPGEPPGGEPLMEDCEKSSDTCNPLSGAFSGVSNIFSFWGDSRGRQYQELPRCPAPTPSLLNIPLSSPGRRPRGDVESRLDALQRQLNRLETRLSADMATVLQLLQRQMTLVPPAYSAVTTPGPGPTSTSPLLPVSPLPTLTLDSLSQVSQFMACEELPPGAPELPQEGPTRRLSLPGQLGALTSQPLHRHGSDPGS
In short: as §1

α4β2 = biological target: T2, α4β2 (Homo sapiens, UniProt P17787+P43681); assay: Ion channel panel (IonWorks Barracuda): α4β2; type: cell-based; settings: 100% = no change, <100% = inhibition
T2 construct: host or cells: HEK293 or CHO
In short: as §1

Kv2.1 = biological target: T3, Kv2.1 (Homo sapiens, UniProt Q14721); assay: cell-based; settings: 100% = no change, <100% = inhibition
T3 construct: host or cells: HEK293 or CHO
In short: as §1

Cav2.1 = biological target: T4, Cav2.1 (Homo sapiens, UniProt O00555); assay: cell-based; settings: 100% = no change, <100% = inhibition
T4 construct: host or cells: HEK293 or CHO
In short: as §1

Cav2.2 = biological target: T5, Cav2.2 (Homo sapiens, UniProt Q00975); assay: cell-based; settings: 100% = no change, <100% = inhibition
T5 construct: host or cells: HEK293 or CHO
In short: as §1

NR2A = biological target: T6, NR2A (Homo sapiens, UniProt Q12879); assay: Ion channel panel (IonWorks Barracuda): NR2A; type: cell-based; settings: 100% = no change, <100% = inhibition
T6 construct: host or cells: HEK293 or CHO
In short: as §1

Kir2.1 = biological target: T7, Kir2.1 (Homo sapiens, UniProt P63252); assay: Ion channel panel (IonWorks Barracuda): Kir2.1; type: cell-based; settings: 100% = no change, <100% = inhibition
T7 construct: host or cells: HEK293 or CHO
In short: as §1

α3β4 = biological target: T8, α3β4 (Homo sapiens, UniProt P30926+P32297); assay: Ion channel panel (IonWorks Barracuda): α3β4; type: cell-based; settings: 100% = no change, <100% = inhibition
T8 construct: host or cells: HEK293 or CHO
In short: as §1

5HT3a = biological target: T9, 5HT3a (Homo sapiens, UniProt P46098); assay: Ion channel panel (IonWorks Barracuda): 5HT3a; type: cell-based
T9 construct: host or cells: HEK293 or CHO
T9 sequence (P46098 whole entry, looked up): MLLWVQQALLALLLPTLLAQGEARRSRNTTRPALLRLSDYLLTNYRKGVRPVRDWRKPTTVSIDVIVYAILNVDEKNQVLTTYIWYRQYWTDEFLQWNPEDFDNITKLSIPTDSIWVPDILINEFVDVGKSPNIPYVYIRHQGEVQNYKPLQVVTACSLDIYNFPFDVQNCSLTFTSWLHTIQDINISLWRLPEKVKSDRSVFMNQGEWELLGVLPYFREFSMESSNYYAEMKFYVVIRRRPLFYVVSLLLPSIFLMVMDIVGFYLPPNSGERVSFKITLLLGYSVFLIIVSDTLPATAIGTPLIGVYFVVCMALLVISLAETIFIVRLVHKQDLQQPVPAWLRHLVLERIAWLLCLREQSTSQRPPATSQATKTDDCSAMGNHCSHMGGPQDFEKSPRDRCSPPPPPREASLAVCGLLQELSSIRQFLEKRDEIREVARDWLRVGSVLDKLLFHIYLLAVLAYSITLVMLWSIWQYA
In short: as §1

Kv1.1 = biological target: T10, Kv1.1 (Homo sapiens, UniProt Q09470); assay: cell-based; type: cell-based; settings: 100% = no change, <100% = inhibition
T10 construct: host or cells: HEK293 or CHO
In short: as §1

Kv1.3 = biological target: T11, Kv1.3 (Homo sapiens, UniProt P22001); assay: cell-based; type: cell-based; settings: 100% = no change, <100% = inhibition
T11 construct: host or cells: HEK293 or CHO
In short: as §1

Kv1.2 = biological target: T12, Kv1.2 (Homo sapiens, UniProt P16389); assay: cell-based; type: cell-based; settings: 100% = no change, <100% = inhibition
T12 construct: host or cells: HEK293 or CHO
In short: as §1

Nav1.7 = biological target: T13, Nav1.7 (Homo sapiens, UniProt Q15858); assay: cell-based; type: cell-based; settings: 100% = no change; for Activity of Nav1.7 with peptide, expressed as a percentage of the reference compound: peptide at 0.2 μM; for Activity of Nav1.7 with peptide (percentage of the reference compound): peptide at 20 μM
T13 construct: host or cells: HEK293 or CHO
T13 sequence (Q15858 whole entry): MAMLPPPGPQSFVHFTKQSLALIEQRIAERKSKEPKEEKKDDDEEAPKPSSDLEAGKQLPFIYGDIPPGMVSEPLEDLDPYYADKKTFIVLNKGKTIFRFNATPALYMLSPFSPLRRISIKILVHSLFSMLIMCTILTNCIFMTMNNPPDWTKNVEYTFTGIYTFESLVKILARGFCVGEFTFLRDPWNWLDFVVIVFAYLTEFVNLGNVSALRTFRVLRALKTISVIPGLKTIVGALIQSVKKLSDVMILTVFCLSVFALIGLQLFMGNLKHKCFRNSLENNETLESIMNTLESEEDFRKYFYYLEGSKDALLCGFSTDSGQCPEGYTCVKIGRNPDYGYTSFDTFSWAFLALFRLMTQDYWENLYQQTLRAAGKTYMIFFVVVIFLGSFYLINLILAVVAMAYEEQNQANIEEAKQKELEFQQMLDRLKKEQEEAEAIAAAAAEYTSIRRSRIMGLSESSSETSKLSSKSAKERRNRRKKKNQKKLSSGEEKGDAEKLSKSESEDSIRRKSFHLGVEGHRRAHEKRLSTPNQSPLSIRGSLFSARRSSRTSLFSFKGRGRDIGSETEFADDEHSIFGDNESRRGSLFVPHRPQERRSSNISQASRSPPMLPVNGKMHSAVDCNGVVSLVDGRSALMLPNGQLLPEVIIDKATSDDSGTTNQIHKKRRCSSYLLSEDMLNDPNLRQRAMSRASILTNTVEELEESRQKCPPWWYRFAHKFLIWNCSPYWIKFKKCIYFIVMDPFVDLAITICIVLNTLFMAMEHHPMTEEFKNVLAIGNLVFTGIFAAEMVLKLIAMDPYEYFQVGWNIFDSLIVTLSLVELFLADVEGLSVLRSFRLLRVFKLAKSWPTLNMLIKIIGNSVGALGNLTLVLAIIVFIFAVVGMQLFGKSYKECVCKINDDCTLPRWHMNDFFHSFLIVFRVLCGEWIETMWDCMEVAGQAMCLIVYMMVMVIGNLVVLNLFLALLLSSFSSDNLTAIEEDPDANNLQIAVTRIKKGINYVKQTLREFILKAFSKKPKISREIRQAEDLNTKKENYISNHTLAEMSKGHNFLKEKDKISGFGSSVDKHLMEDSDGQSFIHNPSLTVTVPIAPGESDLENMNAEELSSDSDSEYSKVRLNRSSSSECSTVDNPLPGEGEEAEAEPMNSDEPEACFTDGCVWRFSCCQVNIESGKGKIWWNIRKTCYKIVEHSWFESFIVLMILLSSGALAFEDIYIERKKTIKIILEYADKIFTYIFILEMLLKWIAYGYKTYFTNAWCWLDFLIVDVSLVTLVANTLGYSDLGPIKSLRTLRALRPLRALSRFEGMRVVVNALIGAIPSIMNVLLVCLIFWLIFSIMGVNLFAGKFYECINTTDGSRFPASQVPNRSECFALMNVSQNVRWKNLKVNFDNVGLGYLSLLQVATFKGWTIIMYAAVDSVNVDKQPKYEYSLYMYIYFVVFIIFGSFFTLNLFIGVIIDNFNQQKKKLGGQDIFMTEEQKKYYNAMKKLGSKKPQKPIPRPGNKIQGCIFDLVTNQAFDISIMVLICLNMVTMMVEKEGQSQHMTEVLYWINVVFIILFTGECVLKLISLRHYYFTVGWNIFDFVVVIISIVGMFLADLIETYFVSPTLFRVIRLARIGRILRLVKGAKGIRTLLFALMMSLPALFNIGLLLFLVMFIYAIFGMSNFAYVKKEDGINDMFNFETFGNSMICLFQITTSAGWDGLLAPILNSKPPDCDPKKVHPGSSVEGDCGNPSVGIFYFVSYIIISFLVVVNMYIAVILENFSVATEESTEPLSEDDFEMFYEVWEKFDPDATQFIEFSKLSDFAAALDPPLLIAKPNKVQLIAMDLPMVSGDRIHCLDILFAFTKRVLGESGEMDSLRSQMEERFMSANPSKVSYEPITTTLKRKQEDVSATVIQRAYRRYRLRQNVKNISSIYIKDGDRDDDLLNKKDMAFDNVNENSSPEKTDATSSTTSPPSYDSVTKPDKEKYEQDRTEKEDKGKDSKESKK

TRPA1 = biological target: T14, TRPA1 (Homo sapiens, UniProt O75762); assay: Ion channel panel (IonWorks Barracuda): TRPA1; type: cell-based; settings: 100% = no change, <100% = inhibition
T14 construct: host or cells: HEK293 or CHO
In short: as §1

TRPV1 = biological target: T15, TRPV1 (Homo sapiens, UniProt Q8NER1); assay: Ion channel panel (IonWorks Barracuda): TRPV1; type: cell-based; settings: 100% = no change, <100% = inhibition
T15 construct: host or cells: HEK293 or CHO
In short: as §1

[1] = first of two Nav1.5 columns (probably TP1)
[2] = second of two Nav1.5 columns (probably TP2)
[3] = first of two Nav1.7 columns (probably TP1)
[4] = second of two Nav1.7 columns (probably TP2)

Substance: 19 (GSQFTDVKCTGSKQCWPVCKQMFGKPNGKCMNGKCRCYS) [compound 19]
- Activity of GABA with peptide, expressed as a percentage of the reference compound (GABA; peptide at 0.2 μM): 93%
- Activity of GABA with peptide (percentage of the reference compound) (GABA; peptide at 20 μM): 111%
- Activity of NR2B with peptide, expressed as a percentage of the reference compound (NR2B; peptide at 0.2 μM): 117%
- Activity of NR2B with peptide (percentage of the reference compound) (NR2B; peptide at 20 μM): 130%
- Activity of Nav1.5 with peptide, expressed as a percentage of the reference compound (Nav1.5; [1]): 112%
- Activity of Nav1.5 with peptide, expressed as a percentage of the reference compound (Nav1.5; [2]): 114%
- Activity of Nav1.5 with peptide (percentage of the reference compound) (Nav1.5; [1]): 117%
- Activity of Nav1.5 with peptide (percentage of the reference compound) (Nav1.5; [2]): 117%
- Activity of hERG with peptide, expressed as a percentage of the reference compound (hERG; peptide at 0.2 μM): 98%
- Activity of hERG with peptide (percentage of the reference compound) (hERG; peptide at 20 μM): 86%
- Activity of a4b2 with peptide, expressed as a percentage of the reference compound (α4β2; peptide at 0.2 μM): 99%
- Activity of a4b2 with peptide (percentage of the reference compound) (α4β2; peptide at 20 μM): 93%
- Activity of Kv2.1 with peptide, expressed as a percentage of the reference compound (Kv2.1; peptide at 0.2 μM): 95%
- Activity of Kv2.1 with peptide (percentage of the reference compound) (Kv2.1; peptide at 20 μM): 108%
- Activity of Cav2.1 with peptide, expressed as a percentage of the reference compound (Cav2.1; peptide at 0.2 μM): 106%
- Activity of Cav2.1 with peptide (percentage of the reference compound) (Cav2.1; peptide at 20 μM): 109%
- Activity of Cav2.2 with peptide, expressed as a percentage of the reference compound (Cav2.2; peptide at 0.2 μM): 116%
- Activity of Cav2.2 with peptide (percentage of the reference compound) (Cav2.2; peptide at 20 μM): 94%
- Activity of NR2A with peptide, expressed as a percentage of the reference compound (NR2A; peptide at 0.2 μM): 90%
- Activity of NR2A with peptide (percentage of the reference compound) (NR2A; peptide at 20 μM): 99%
- Activity of Kir2.1 with peptide, expressed as a percentage of the reference compound (Kir2.1; peptide at 0.2 μM): 107%
- Activity of Kir2.1 with peptide (percentage of the reference compound) (Kir2.1; peptide at 20 μM): 93%
- Activity of a3b4 with peptide, expressed as a percentage of the reference compound (α3β4; peptide at 0.2 μM): 101%
- Activity of a3b4 with peptide (percentage of the reference compound) (α3β4; peptide at 20 μM): 97%
- Activity of 5HT3a with peptide (percentage of the reference compound) (5HT3a): 69%
- Activity of 5HT3a with peptide, expressed as a percentage of the reference compound (5HT3a): 89%
- Activity of Kv1.1 with peptide, expressed as a percentage of the reference compound (Kv1.1; peptide at 0.2 μM): 100%
- Activity of Kv1.1 with peptide (percentage of the reference compound) (Kv1.1; peptide at 20 μM): 44%
- Activity of Kv1.3 with peptide, expressed as a percentage of the reference compound (Kv1.3; peptide at 0.2 μM): 4%
- Activity of Kv1.3 with peptide (percentage of the reference compound) (Kv1.3; peptide at 20 μM): −1%
- Activity of Kv1.2 with peptide, expressed as a percentage of the reference compound (Kv1.2; peptide at 0.2 μM): 41%
- Activity of Kv1.2 with peptide (percentage of the reference compound) (Kv1.2; peptide at 20 μM): 37%
- Activity of Nav1.7 with peptide, expressed as a percentage of the reference compound (Nav1.7; [3]): 91%
- Activity of Nav1.7 with peptide, expressed as a percentage of the reference compound (Nav1.7; [4]): 92%
- Activity of Nav1.7 with peptide (percentage of the reference compound) (Nav1.7; [3]): 121%
- Activity of Nav1.7 with peptide (percentage of the reference compound) (Nav1.7; [4]): 140%
- Activity of TRPA1 with peptide, expressed as a percentage of the reference compound (TRPA1; peptide at 0.2 μM): 126%
- Activity of TRPA1 with peptide (percentage of the reference compound) (TRPA1; peptide at 20 μM): 109%
- Activity of TRPV1 with peptide, expressed as a percentage of the reference compound (TRPV1; peptide at 0.2 μM): 94%
- Activity of TRPV1 with peptide (percentage of the reference compound) (TRPV1; peptide at 20 μM): 90%
